Assay results reported in US20200071416A1 (ASTUTE MEDICAL, published 2020).

Key:
[1] = molecular target: T1, TIMP-2 region 132PWDTLSTTQKK142 (human); experiment: Pepscan ELISA on linear 15-mer TIMP-2 peptides
T1 construct: This exact peptide was not itself the assayed species
T1 peptide: PWDTLSTTQKK
Method: (§1) Synthetic linear peptides were synthesized and screened as described by Slootstra et al. (Slootstra et al., 1996, Mol. Diversity 1, 87-96) and Timmerman et al. (Timmerman et al., 2007, J, Mol Recognit 20, 283-299). The binding of antibody to each peptide was tested in a PEPSCAN-based enzyme-linked immuno assay (ELISA). The covalently linked peptides were incubated with sample (for example 1 μg/mL antibody diluted in a PBS solution containing 5% horse serum (vol/vol) and 4% ovalbumin (weight/vol)) and 1% Tween 80 at 4° C. overnight. After washing, the peptides were incubated with Goat-anti-Rabbit HRP (Jackson Immunoresearch) for 1 hour at 25° C., and subsequently, after washing the peroxidase substrate 2,2′-azino-di-3-ethylbenzthiazoline sulfonate (ABTS) and […] 3% H₂O₂ were added. After 1 hour the color development was measured.

[2] = molecular target: T2, TIMP-2 region 145NHRYQMGCECKI156 (human); experiment: Pepscan ELISA on linear 15-mer TIMP-2 peptides
T2 construct: This exact peptide was not itself the assayed species
T2 peptide: NHRYQMGCECKI
Method: as §1

B1: antibody 6E2.1 (antibody, V domains shown)
VH: QVQLQQSGPQLVRPGASVKISCKASGYSFTSYWMHWVKQRPGQGLEWIGVIDPSDSETRLNQKFKDKATLTVDKSSSTAYMQLNSPTSEDSAVYYCARRDYGSRYDAMDYWGQGTSVTVSS
VL: DIQMTQSSSYLSVSLGGRVTITCKASDHINNWLAWYQQKPGNAPRLLISGATSLETGVPSRFSGSGSGKDYTLSITSLQTEDVATYYCQQYWSTPFTFGSGTKLEIK
notes: Both are partial: a leader, the variable domain and only the start of the constant region
- binding result [1]: binds

B2: antibody 40H2-40K3 (antibody, V domains shown)
VH: QSLEESGGDLVKPEGSLTLTCTASGFTISSNYYMCWVRQAPGKGLEWVACILGGSGTYTYYATWAKGRFTISKTSSTTVTLQMPSLTAADTATYFCARQAPADTYLYGGYGPFNLWGQGTLVTVSS
VL: DIVMTQTPSSVEAAVGGTVTIKCQASESISGWLAWYQQKPGQPPKLLIYRASTLESGVPSRFKGSGSGTEFTLTISDLECADAATYYCQCSYGINGNSEHGNPFGGGTEVVVKR
- binding result [2]: binds
